Drawing on PMC10786891, “Massively parallel profiling of RNA-targeting CRISPR-Cas13d”, this text covers Kd for 27 molecules.

T1: EsCas13d, nuclease-dead (Eubacterium siraeum, UniProt B0MS50, R295A;H300A;R849A;H854A)
T1 sequence: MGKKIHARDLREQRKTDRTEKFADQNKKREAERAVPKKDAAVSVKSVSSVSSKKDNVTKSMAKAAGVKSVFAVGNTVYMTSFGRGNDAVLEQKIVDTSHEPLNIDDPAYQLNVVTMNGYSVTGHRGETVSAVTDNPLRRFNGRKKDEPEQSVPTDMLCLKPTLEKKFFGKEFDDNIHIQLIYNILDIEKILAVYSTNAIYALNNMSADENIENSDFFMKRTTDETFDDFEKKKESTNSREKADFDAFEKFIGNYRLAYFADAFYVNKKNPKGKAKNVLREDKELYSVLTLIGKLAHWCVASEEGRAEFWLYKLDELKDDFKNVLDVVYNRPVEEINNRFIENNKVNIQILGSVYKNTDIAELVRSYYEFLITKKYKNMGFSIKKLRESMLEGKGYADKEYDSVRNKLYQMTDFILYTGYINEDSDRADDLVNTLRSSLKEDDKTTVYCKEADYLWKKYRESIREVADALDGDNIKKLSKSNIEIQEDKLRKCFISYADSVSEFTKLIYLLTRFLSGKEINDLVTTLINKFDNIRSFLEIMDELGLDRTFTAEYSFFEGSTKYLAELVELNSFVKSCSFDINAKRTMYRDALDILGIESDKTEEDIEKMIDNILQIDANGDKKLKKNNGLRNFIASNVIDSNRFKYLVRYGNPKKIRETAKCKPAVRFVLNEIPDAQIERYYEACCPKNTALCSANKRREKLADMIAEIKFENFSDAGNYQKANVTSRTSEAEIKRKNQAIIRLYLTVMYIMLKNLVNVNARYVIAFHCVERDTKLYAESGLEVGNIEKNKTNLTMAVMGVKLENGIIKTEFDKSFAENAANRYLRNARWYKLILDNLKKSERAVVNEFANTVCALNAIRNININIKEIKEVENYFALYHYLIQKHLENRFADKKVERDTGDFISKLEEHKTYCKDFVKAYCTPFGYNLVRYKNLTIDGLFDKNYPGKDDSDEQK

B1: target 1 insU 3' of 6,insC 3' of 5 (mixed)
RNA 1: CACCCGUGCAAAAAUGCAGGGGUCUAAAACUGAGCGGAUAACCUCUCUAUGG
RNA 2: GGGAAUGGAUCCACAUCUACGAAUUCGUACCAUAGAGAGGUUAUCCUGCCUCACCGAGAUCGGAAGAGCACACGU
B2: target 1 A1C,C21U (mixed)
RNA 1: CACCCGUGCAAAAAUGCAGGGGUCUAAAACUGAGCGGAUAACCUCUCUAUGG
RNA 2: GGGAAUGGAUCCACAUCUACGAAUUCGUACUAUAGAGAGGUUAUCCGCUCCCCGAGAUCGGAAGAGCACACGU
B3: target 1 complement block 6-14 (mixed)
RNA 1: CACCCGUGCAAAAAUGCAGGGGUCUAAAACUGAGCGGAUAACCUCUCUAUGG
RNA 2: GGGAAUGGAUCCACAUCUACGAAUUCGUACCAUAGAGUCCAAUAGGGCUCACCGAGAUCGGAAGAGCACACGU
B4: target 1 A1U,C21U (mixed)
RNA 1: CACCCGUGCAAAAAUGCAGGGGUCUAAAACUGAGCGGAUAACCUCUCUAUGG
RNA 2: GGGAAUGGAUCCACAUCUACGAAUUCGUACUAUAGAGAGGUUAUCCGCUCUCCGAGAUCGGAAGAGCACACGU
B5: target 1 insG 3' of 6,insG 3' of 6 (mixed)
RNA 1: CACCCGUGCAAAAAUGCAGGGGUCUAAAACUGAGCGGAUAACCUCUCUAUGG
RNA 2: GGGAAUGGAUCCACAUCUACGAAUUCGUACCAUAGAGAGGUUAUCCGGGCUCACCGAGAUCGGAAGAGCACACGU
B6: target 1 A1C,G17U (mixed)
RNA 1: CACCCGUGCAAAAAUGCAGGGGUCUAAAACUGAGCGGAUAACCUCUCUAUGG
RNA 2: GGGAAUGGAUCCACAUCUACGAAUUCGUACCAUAUAGAGGUUAUCCGCUCCCCGAGAUCGGAAGAGCACACGU
B7: target 1 insA 3' of 5,insA 3' of 3 (mixed)
RNA 1: CACCCGUGCAAAAAUGCAGGGGUCUAAAACUGAGCGGAUAACCUCUCUAUGG
RNA 2: GGGAAUGGAUCCACAUCUACGAAUUCGUACCAUAGAGAGGUUAUCCGACUACACCGAGAUCGGAAGAGCACACGU
B8: target 1 C6U,U11A (mixed)
RNA 1: CACCCGUGCAAAAAUGCAGGGGUCUAAAACUGAGCGGAUAACCUCUCUAUGG
RNA 2: GGGAAUGGAUCCACAUCUACGAAUUCGUACCAUAGAGAGGAUAUCUGCUCACCGAGAUCGGAAGAGCACACGU
B9: target 1 insC 3' of 10,insG 3' of 1 (mixed)
RNA 1: CACCCGUGCAAAAAUGCAGGGGUCUAAAACUGAGCGGAUAACCUCUCUAUGG
RNA 2: GGGAAUGGAUCCACAUCUACGAAUUCGUACCAUAGAGAGGUUCAUCCGCUCAGCCGAGAUCGGAAGAGCACACGU
B10: target 1 C7U,C22A (mixed)
RNA 1: CACCCGUGCAAAAAUGCAGGGGUCUAAAACUGAGCGGAUAACCUCUCUAUGG
RNA 2: GGGAAUGGAUCCACAUCUACGAAUUCGUAACAUAGAGAGGUUAUUCGCUCACCGAGAUCGGAAGAGCACACGU
B11: target 1 insC 3' of 8,insA 3' of 3 (mixed)
RNA 1: CACCCGUGCAAAAAUGCAGGGGUCUAAAACUGAGCGGAUAACCUCUCUAUGG
RNA 2: GGGAAUGGAUCCACAUCUACGAAUUCGUACCAUAGAGAGGUUAUCCCGCUACACCGAGAUCGGAAGAGCACACGU
B12: target 1 A1G,C21U (mixed)
RNA 1: CACCCGUGCAAAAAUGCAGGGGUCUAAAACUGAGCGGAUAACCUCUCUAUGG
RNA 2: GGGAAUGGAUCCACAUCUACGAAUUCGUACUAUAGAGAGGUUAUCCGCUCGCCGAGAUCGGAAGAGCACACGU
B13: target 1 insC 3' of 10,insA 3' of 2 (mixed)
RNA 1: CACCCGUGCAAAAAUGCAGGGGUCUAAAACUGAGCGGAUAACCUCUCUAUGG
RNA 2: GGGAAUGGAUCCACAUCUACGAAUUCGUACCAUAGAGAGGUUCAUCCGCUCAACCGAGAUCGGAAGAGCACACGU
B14: target 1 insU 3' of 15,insU 3' of 14 (mixed)
RNA 1: CACCCGUGCAAAAAUGCAGGGGUCUAAAACUGAGCGGAUAACCUCUCUAUGG
RNA 2: GGGAAUGGAUCCACAUCUACGAAUUCGUACCAUAGAGUAUGGUUAUCCGCUCACCGAGAUCGGAAGAGCACACGU
B15: target 1 C2G,G12C (mixed)
RNA 1: CACCCGUGCAAAAAUGCAGGGGUCUAAAACUGAGCGGAUAACCUCUCUAUGG
RNA 2: GGGAAUGGAUCCACAUCUACGAAUUCGUACCAUAGAGAGCUUAUCCGCUGACCGAGAUCGGAAGAGCACACGU
B16: target 1 C4U,U10A (mixed)
RNA 1: CACCCGUGCAAAAAUGCAGGGGUCUAAAACUGAGCGGAUAACCUCUCUAUGG
RNA 2: GGGAAUGGAUCCACAUCUACGAAUUCGUACCAUAGAGAGGUAAUCCGUUCACCGAGAUCGGAAGAGCACACGU
B17: target 1 insU 3' of 9,insG 3' of 4 (mixed)
RNA 1: CACCCGUGCAAAAAUGCAGGGGUCUAAAACUGAGCGGAUAACCUCUCUAUGG
RNA 2: GGGAAUGGAUCCACAUCUACGAAUUCGUACCAUAGAGAGGUUAUUCCGCGUCACCGAGAUCGGAAGAGCACACGU
B18: target 1 del13,del20 (mixed)
RNA 1: CACCCGUGCAAAAAUGCAGGGGUCUAAAACUGAGCGGAUAACCUCUCUAUGG
RNA 2: GGGAAUGGAUCCACAUCUACGAAUUCGUACCUAGAGAGUUAUCCGCUCACCGAGAUCGGAAGAGCACACGU
B19: target 1 insC 3' of 14,insA 3' of 3 (mixed)
RNA 1: CACCCGUGCAAAAAUGCAGGGGUCUAAAACUGAGCGGAUAACCUCUCUAUGG
RNA 2: GGGAAUGGAUCCACAUCUACGAAUUCGUACCAUAGAGACGGUUAUCCGCUACACCGAGAUCGGAAGAGCACACGU
B20: target 1 insC 3' of 10,insU 3' of 1 (mixed)
RNA 1: CACCCGUGCAAAAAUGCAGGGGUCUAAAACUGAGCGGAUAACCUCUCUAUGG
RNA 2: GGGAAUGGAUCCACAUCUACGAAUUCGUACCAUAGAGAGGUUCAUCCGCUCAUCCGAGAUCGGAAGAGCACACGU
B21: target 1 insC 3' of 10,insU 3' of 9 (mixed)
RNA 1: CACCCGUGCAAAAAUGCAGGGGUCUAAAACUGAGCGGAUAACCUCUCUAUGG
RNA 2: GGGAAUGGAUCCACAUCUACGAAUUCGUACCAUAGAGAGGUUCAUUCCGCUCACCGAGAUCGGAAGAGCACACGU
B22: target 1 A1C,A9U (mixed)
RNA 1: CACCCGUGCAAAAAUGCAGGGGUCUAAAACUGAGCGGAUAACCUCUCUAUGG
RNA 2: GGGAAUGGAUCCACAUCUACGAAUUCGUACCAUAGAGAGGUUUUCCGCUCCCCGAGAUCGGAAGAGCACACGU
B23: target 1 insG 3' of 18,insG 3' of 7 (mixed)
RNA 1: CACCCGUGCAAAAAUGCAGGGGUCUAAAACUGAGCGGAUAACCUCUCUAUGG
RNA 2: GGGAAUGGAUCCACAUCUACGAAUUCGUACCAUAGGAGAGGUUAUCGCGCUCACCGAGAUCGGAAGAGCACACGU
B24: target 1 del17 (mixed)
RNA 1: CACCCGUGCAAAAAUGCAGGGGUCUAAAACUGAGCGGAUAACCUCUCUAUGG
RNA 2: GGGAAUGGAUCCACAUCUACGAAUUCGUACCAUAAGAGGUUAUCCGCUCACCGAGAUCGGAAGAGCACACGU
B25: target 1 insC 3' of 10,insC 3' of 1 (mixed)
RNA 1: CACCCGUGCAAAAAUGCAGGGGUCUAAAACUGAGCGGAUAACCUCUCUAUGG
RNA 2: GGGAAUGGAUCCACAUCUACGAAUUCGUACCAUAGAGAGGUUCAUCCGCUCACCCGAGAUCGGAAGAGCACACGU
B26: target 1 C21U (mixed)
RNA 1: CACCCGUGCAAAAAUGCAGGGGUCUAAAACUGAGCGGAUAACCUCUCUAUGG
RNA 2: GGGAAUGGAUCCACAUCUACGAAUUCGUACUAUAGAGAGGUUAUCCGCUCACCGAGAUCGGAAGAGCACACGU
B27: target 1 G17U (mixed)
RNA 1: CACCCGUGCAAAAAUGCAGGGGUCUAAAACUGAGCGGAUAACCUCUCUAUGG
RNA 2: GGGAAUGGAUCCACAUCUACGAAUUCGUACCAUAUAGAGGUUAUCCGCUCACCGAGAUCGGAAGAGCACACGU

The Kd is the concentration at which binding is half-saturated. A high value points to weaker binding.

This series concerns the target T1, EsCas13d, nuclease-dead. The series can be described thus: crRNA (strand 1, pre-loaded); Mg2+; 40 mM Tris-HCl pH 7.5, 150 mM NaCl, 6 mM MgCl2, 1 mM DTT, 0.1% Tween-20, 0.2 mg/ml BSA; 25 C; 10 min per concentration, then washed. The conditions noted are these: tags: His6-TwinStrep-SUMO cleaved; N-terminal SNAP kept (SNAP-Surface 488); label: 3' end held by stalled T7 RNA polymerase.
B1 had a Kd of 13.9 ± 0.8 nM.

Consider B2, for which the Kd is 13 ± 4 nM.

Take B3: binding was put at a Kd of 69 ± 27 nM.

In turn, B4 had a Kd of 7.6 ± 0.4 nM.

With B5, the Kd came to 11.4 ± 0.5 nM.

B6 came in with a Kd of 34 ± 9 nM.

Molecule B7 came in with a Kd of 6.8 ± 0.6 nM.

On to B8, for which the Kd amounted to 38.2 ± 2.4 nM.

B9 yielded a Kd of 15.5 ± 1.4 nM.

Molecule B10 registered a Kd of 11 ± 0.5 nM.

Regarding B11, the Kd came to 11.8 ± 0.7 nM.

Molecule B12 yielded a Kd of 6.38 ± 0.24 nM.

As to B13, the Kd worked out at 19.4 ± 2.4 nM.

As for B14, the affinity, expressed as Kd, was 53 ± 4 nM.

The molecule B15 registered a Kd of 8.4 ± 0.8 nM.

For the molecule B16, the Kd is 47 ± 15 nM.

B17 yielded a Kd of 13.6 ± 2.1 nM.

Molecule B18 had a Kd of 56 ± 8 nM.

With B19, the Kd is 24.8 ± 1.9 nM.

B20 yielded a Kd of 26 ± 4 nM.

In the case of B21, binding was characterised by a dissociation constant (Kd) of 66 ± 27 nM.

Consider B22, for which the Kd turned out to be 20 ± 5 nM.

As to B23, the Kd was determined as 34.9 ± 3 nM.

Consider B24, for which binding was put at a Kd of 22.6 ± 1.6 nM.

B25 showed a Kd of 13.5 ± 1 nM.

B26 registered a Kd of 6.47 ± 0.24 nM.

Turning to B27, the Kd came out at 17 ± 1.3 nM.
